Measured values from patent US20230099801A1, “RESTORATION OF T CELL ACTIVITY VIA THE CD39/CD73 AXIS” (INNATE PHARMA, priority 2017, published 2023).
Entries after “also recorded” stand apart in the source; their conditions may differ.

What was measured:
[1] = system: monocyte-derived DC (moDC); experiment: Activation of dendritic cells in presence of ATP; type: cell-based, human; settings: ATP at each of 0.125 mM, 0.25 mM or 0.5 mM; I-394 at 10 μg/ml
Method: While ATP has pro-inflammatory activity, CD39-mediated catabolism of ATP is believed to be able to impair dendritic cell (DC) activation, in turn altering a broader adaptive immune response against tumor antigen. In order to evaluate whether CD39 blockade using anti-CD39 antibodies could overcome CD39-mediated alteration of dendritic cell (DC) activation in the presence of ATP, we incubated monocyte-derived DC (moDC) with anti-CD39 antibodies in the presence of ATP.
Briefly, human monocytes were purified from human healthy blood and differentiated into MoDC in presence of GM-CSF and IL-4 during 6 days. […] LPS (Invivogen, 10 ng/ml) was used as positive control. To assess resulting effect of ATP-mediated DC activation on CD4 T cells activation, ATP-activated DC were washed and then incubated with allogenic CD4 T cells (ratio 1 MoDC/4 T cells) for a mixed lymphocytes reaction (MLR) during 5 days. T cells activation and proliferation were analyzed through CD25 expression and Cell Trace Violet dilution by flow cytometry (FIG. 8).

CD8 T cells = experiment: T cell proliferation assay in presence of added ATP, CD8 T cells; type: cell-based, human
Method: Peripheral blood from healthy donors was obtained from EFS, and mononuclear cells were isolated on a Ficoll gradient. Lymphocytes were further enriched on a 52% Percoll gradient by collection of the cell pellets and stained with a Cell Trace dye (Thermofisher) following the TDS provided by the manufacturer. […] Inhibition of T cell proliferation was achieved by addition of ATP (200 μM). T cell proliferation and ability of Abs to block immune suppressive effect of AMP were assessed by flow cytometry by quantifying the dye dilution in the proliferating T cell subset.
Percentage of proliferating T cells vs. anti-CD73 Ab concentration is plotted in graphs using GraphPad Prism software.

[2] = biological target: T1, cell-membrane bound CD39 (CD39-expressing cells) (Homo sapiens, UniProt P49961); experiment: Inhibition of the enzymatic activity of cellular CD39, Cell Titer Glo; type: cell-based
T1 construct: host or cells: CD39-expressing cells
T1 sequence (P49961 1-510): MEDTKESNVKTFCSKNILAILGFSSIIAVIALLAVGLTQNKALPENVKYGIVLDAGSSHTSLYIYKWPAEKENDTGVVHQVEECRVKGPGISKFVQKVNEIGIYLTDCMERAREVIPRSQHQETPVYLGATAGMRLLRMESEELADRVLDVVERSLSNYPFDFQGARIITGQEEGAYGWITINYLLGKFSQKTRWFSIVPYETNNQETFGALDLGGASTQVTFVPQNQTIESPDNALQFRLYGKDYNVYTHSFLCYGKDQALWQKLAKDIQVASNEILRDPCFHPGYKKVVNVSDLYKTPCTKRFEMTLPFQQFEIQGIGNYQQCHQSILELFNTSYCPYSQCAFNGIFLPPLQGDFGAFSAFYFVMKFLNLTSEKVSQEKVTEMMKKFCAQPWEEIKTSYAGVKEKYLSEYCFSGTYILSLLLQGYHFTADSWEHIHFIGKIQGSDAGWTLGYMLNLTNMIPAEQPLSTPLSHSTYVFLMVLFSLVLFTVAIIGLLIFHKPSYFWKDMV
Method: The ability of an antibody to inhibit cells expressing CD39 protein can be tested by detecting ATP after incubating test antibody with cells (e.g., Ramos cells, cells transfected with CD39, etc.). See, e.g., Example 1. Cells can be incubated for 1 hour at 37° C. with test antibody. Cells are then incubated with 20 μM ATP for 1 additional hour at 37° C. Plates are centrifuged for 2 min at 400 g and cell supernatant are transferred in a luminescence microplate (white wells). CTG is added to the supernatant and emitted light is quantified after a 5 min incubation in the dark using an Enspire™ luminometer. Anti-CD39 antibody efficacy is determined by comparing emitted light in presence of antibody with ATP alone (maximal light emission) and ATP together with cells (minimal light emission).
The inhibition of the CD39 enzymatic activity in CD39-expressing cells by antibodies was evaluated using Cell Titer Glo™ (Promega, reference G7571) that allows assessment of ATP hydrolysis through use of a reagent that generates a luminescent signal proportional to the amount of ATP present. […] Plates were centrifuged for 2 min at 400 g and 50 μl cell supernatant are transferred in a luminescence microplate (white wells). 50 μl CellTiter-Glo® Reagent (CTG) was added to the supernatant and emitted light was quantified after a 5 min incubation in the dark using a Enspire™ luminometer. […]

B1: I-394: anti-CD39 antibody, VH SEQ ID NO: 6, VL SEQ ID NO: 7; heavy/light chains SEQ ID NOS: 52 and 53 (antibody)
heavy: EVQLQQSGPELVKPGASVKMSCKASGYTFTDYNMHWVKQSHGRTLEWIGYIVPLNGGSTFNQKFKGRATLTVNTSSRTAYMELRSLTSEDSAAYYCARGGTRFAYWGQGTLVTVSAASTKGPSVFPLAPSSKSTSGGTAALGCLVKDYFPEPVTVSWNSGALTSGVHTFPAVLQSSGLYSLSSVVTVPSSSLGTQTYICNVNHKPSNTKVDKRVEPKSCDKTHTCPPCPAPEAEGAPSVFLFPPKPKDTLMISRTPEVTCVVVDVSHEDPEVKFNWYVDGVEVHNAKTKPREEQYNSTYRVVSVLTVLHQDWLNGKEYKCKVSNKALPSSIEKTISKAKGQPREPQVYTLPPSREEMTKNQVSLTCLVKGFYPSDIAVEWESNGQPENNYKTTPPVLDSDGSFFLYSKLTVDKSRWQQGNVFSCSVMHEALHNHYTQKSLSLSPGK
light: DIVLTQSPASLAVSLGQRATISCRASESVDNFGVSFMYWFQQKPGQPPNLLIYGASNQGSGVPARFRGSGSGTDFSLNIHPMEADDTAMYFCQQTKEVPYTFGGGTKLEIKRTVAAPSVFIFPPSDEQLKSGTASVVCLLNNFYPREAKVQWKVDNALQSGNSQESVTEQDSKDSTYSLSSTLTLSKADYEKHKVYACEVTHQGLSSPVTKSFNRGEC
modifications: Chimeric homo sapiens mus musculus
Q: Which “moDC activation as assessed by HLA-DR or CD83 expression” value [1] does the source give for B1 here?
A: permitted moDC activation; also recorded: lead to moDC activation

Q: What about the “potentiation of anti-CD73 antibodies in restoring CD8 T cell proliferation” value (CD8 T cells; added ATP 200 μM) of the same molecule?
A: strongly potentiation

Q: What about the “enhancement of CD8 T cell proliferation, alone without anti-CD73” value (CD8 T cells; concentrations of 0.1 μg/ml and 1 μg/ml, added ATP) of the same molecule?
A: remarkable enhancement

Q: And the “inhibition of the enzymatic activity of cellular (cell-membrane bound) CD39” value [2]?
A: substantially fully blocks; also recorded: inhibit

Q: What about the “potency and maximal inhibition of cellular CD39 compared to BY40” value ([2]; FIG. 2A) of the same molecule?
A: greater potency and maximal inhibition; also recorded: greater potency at all concentrations as well as greater maximal inhibition
